The values below come from the supplement of paper PMC12042874.

± gives the uncertainty stated by the source.

A short description of this series: amyloid nucleation score (Sup35N fusion, yeast selection) (log enrichment); library NNK1; higher = more nucleation; inactive = no reads after selection. The method in brief: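 Sup35N was fused to peptides of 20 random codons and expressed in psi-negative yeast, which were induced with 100 μM copper sulfate for 24 hours and then grown on medium lacking adenine and uracil for 7 days at 30°C. Plasmid inserts from input and output were sequenced on Illumina. The nucleation score is the DiMSum log enrichment of output over input reads, centred on the mode score of non-aggregating sequences. Sequences with under 100 input reads were left out, and random libraries had three technical output replicates.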

WSPTVAMLDGAVRGVAPATH displayed an amyloid nucleation score of -0.7 ± 0.57.

As to GLVSRIAGLIHEIDGRFWMQ, the amyloid nucleation score entry was “inactive”.

Substance EYRFVN gave an amyloid nucleation score of -0.227 ± 0.28. The same measure for FFCRFGILFSTKGFLGFMRF: 1.01 ± 0.67; for SAVVAVPVPYRDHQCPLPRV: 1.13 ± 0.52; for SPLVDLYDFRWRLESRYKNY: 0.107 ± 0.61.

KLYGTRFPQFSRSVNEYC displayed an amyloid nucleation score of 0.111 ± 0.36. In the case of AFNSFIGFHCPSDVWCMKRN, the amyloid nucleation score is 5.25 ± 0.051. The same measure for PYSQFANLSIYVMDMMRGIR: 5.562 ± 0.048. The same measure for VKTPTDRSYRLHGNFIGCWA: -0.576 ± 0.38; for YFRCKFDRASIQHLIASRAH: 3.18 ± 0.19. In the case of CYRPFSQNLPSVMLEFILAE, the amyloid nucleation score stood at 0.146 ± 0.27. In the case of FERSW, the amyloid nucleation score result is “inactive”. The same measure for CFKGF: 0.946 ± 0.49. The same measure for VVSRRVYDYTMDGLWGQ: 0.44 ± 0.36; for IQESVMLVLVDGGVISARL: 0.106 ± 0.3; for LACSVAA: -0.493 ± 0.34. The same measure for LSLSYPYFTFAHSVEMRESI: 9.039 ± 0.053. Take IMNLSRNRVGLRVYGI: the amyloid nucleation score is -0.029 ± 0.41. Take MLWSL: the amyloid nucleation score was 0.342 ± 0.59.

With YYETLLNKDILDMWEYR, the amyloid nucleation score was -0.393 ± 0.55. The same measure for VKRRVSDTHVSCVKGHGSVC: “inactive”; for RNIVIMYRNCLVKLNLETGS: 6.77 ± 0.053. As for NYVPIWSGA, the amyloid nucleation score result was “inactive”.

Consider GVSMGKESMIV, for which the amyloid nucleation score was -0.671 ± 0.72.

Turning to SDDLFVNFSMSVWFLKVSLR, the amyloid nucleation score came out at 0.515 ± 0.34. The same measure for GWLLYDSPSRFTYC: -0.531 ± 0.37; for LPWPRNRFCTLIDEIHTPVY: -0.167 ± 0.57; for QDITPYWIVIGYD: -0.367 ± 0.29. The same measure for VLCNFWMD: 2.9 ± 0.17.

Turning to TLTPTILILFNFIT, the amyloid nucleation score worked out at 4.68 ± 0.052. The same measure for VYSGYSCCAWLLIWTSDGTD: 8.255 ± 0.048. The same measure for SGRGWEAYIYCWVRLVRLVW: -0.463 ± 0.35; for WENLKVSNYDLYSVLPLYGP: 0.381 ± 0.45.

Turning to DSGSHRGW, the amyloid nucleation score worked out at 0.289 ± 0.28. The same measure for DSVLQDTLIMWCSMKTVSPS: -0.075 ± 0.29; for FKCRACMLYDVYIAERWVTG: -0.022 ± 0.37.

Substance QYVPNTLDNSPDAVGMSNIY had an amyloid nucleation score of -0.29 ± 1.7. Substance WANRVCMCLRTSFYHL displayed an amyloid nucleation score of 0.004 ± 0.62. The same measure for DWFSGLNRPRCIKLAQGGTG: 0.441 ± 0.38. As to SDAITRVIRHMNPFCLTALL, the amyloid nucleation score is -0.928 ± 0.95. The same measure for HVDFQVASSDEDLIHLFLYH: 0.258 ± 0.54; for TSELNSYSTCFHSDGLSMNR: “inactive”; for SVNAYTSRTGRWMVMNSLVS: -0.186 ± 1.9. The same measure for YMSWASLRKHFIFVV: -0.282 ± 1.2; for KASCVVLAMLWLVLALGEPG: 0.116 ± 0.81.

In turn, MYASELSLKPATYSWK showed an amyloid nucleation score of -0.646 ± 0.42. Substance TNHDMAINLVQQLDC returned an amyloid nucleation score of 1.67 ± 0.61. The same measure for YVRGSGMAPGD: “inactive”. LGRSGKMTT: the amyloid nucleation score is -0.032 ± 0.54. The same measure for FVMLFSCRST: 0.38 ± 0.76.

SVFGWR registered an amyloid nucleation score of 1.32 ± 0.81.

With FLYDYYG, the amyloid nucleation score entry was “inactive”.

VDNDLGQLPGMW returned an amyloid nucleation score of -0.561 ± 1.7. The same measure for RCGGM: -0.381 ± 0.64; for SKCVSIMAS: “inactive”. The same measure for MCSLFVCMSNTSIV: 5.406 ± 0.051; for QLIHMMFYIRFMWDLGHRSL: 0.814 ± 0.36. On to CFGSSRVSCEYTDDRDDCGM, for which the amyloid nucleation score result was “inactive”. The substance LGHGGVR had an amyloid nucleation score of 0.566 ± 0.28. RRSGTLDGSGSGSCVRLPPN gave an amyloid nucleation score of -0.172 ± 0.5. MDLNEQTEYLLLASRFPMYY: the amyloid nucleation score entry is “inactive”. The same measure for VLQRVQKPLLCMRVLDIYAW: -0.11 ± 0.43; for RSIFVP: “inactive”. The same measure for YLSIKVITQGDWKCQVRVLW: -0.332 ± 0.55; for STMRLPWPGFRVHSL: 0.901 ± 0.65; for TCNQS: “inactive”. The same measure for ELLFFYYMSSNCFVFISCSQ: 1.59 ± 0.38; for VSLFLYISLSLRIVRRYVRV: 0.263 ± 0.27; for TSDNGKNAQGWGM: 0.145 ± 1. The substance WFRVGVPHN returned an amyloid nucleation score of 0.472 ± 1.2. The same measure for GPLSKGIFDRFMDPHRYFKY: -0.024 ± 0.61. The same measure for FYGCNSRA: -0.037 ± 0.97. The same measure for VMGFGTCVRKQCSNYLKGIE: 0.476 ± 0.63.

On to MVFRGFHKSQLGSFELAVGG, for which the amyloid nucleation score stood at 0.428 ± 0.76. The same measure for NVVHRLLWQSSVTSYIAVSY: 1.86 ± 0.14; for IWTFRYVFRIFTCSDGTMVH: -0.108 ± 0.42. FVFFSLGHLAFFARDRYSPW had an amyloid nucleation score of 2.38 ± 0.094. The same measure for VTSDLLD: 0.283 ± 0.4.

Regarding RVMVFGRHNEDVSKFSISGK, the amyloid nucleation score was determined as 4 ± 0.1.

Regarding WCFVTHLLLCFLLDDKNFTW, the amyloid nucleation score result was “inactive”. The same measure for VLDYGIVFNVVLLICIRTTE: 4.87 ± 0.064; for ESFILVFGGCCNWFGCVYLM: 6.537 ± 0.06; for NGMLFCT: 0.267 ± 0.79.

WLVHFDHTPNTSL: the amyloid nucleation score was -0.069 ± 0.53.

For FFMLGSSY, the amyloid nucleation score entry is “inactive”. The same measure for IRMLSRSLSKMSIIFHGGKG: 1.33 ± 0.46; for TTRSSGIFSDEGKQACSDRG: 0.091 ± 0.74.

Substance CITTVPHQPMVLWTICFPTM gave an amyloid nucleation score of 0.614 ± 0.95. The same measure for FGWGTLIGGLWTDNEQSLFT: -0.375 ± 0.49.

As for FFILRNQRPIC, the amyloid nucleation score was 1.76 ± 0.2. The same measure for LFFGSTLMDATFGYGDSDCN: 0.828 ± 0.62. Take SAKNTGYMWMLIWLG: the amyloid nucleation score came out at 0.204 ± 0.79. The same measure for KYEMRITVGRGYFSGRMHAC: 0.494 ± 0.78; for AGECRYLLMSVDGYIGLNLV: 1.07 ± 0.48. The same measure for KGFVDNYVTVIVVWT: 1.64 ± 0.18. The same measure for INALYRFGWKARFSMSC: 0.282 ± 0.45; for SATNCRTGKDCRERGHTLGL: 0.628 ± 0.33. Regarding PMTVSNEFAPSILLSRALFW, the amyloid nucleation score worked out at 3.99 ± 0.14.

For the substance ITTIMTAVTVSPPQSMWFVS, the amyloid nucleation score came out at 1.96 ± 0.25. For GTDPGY, the amyloid nucleation score is -0.706 ± 0.6. On to VLQDSGIAAYKYSGSCDCSF, for which the amyloid nucleation score was -1.07 ± 0.58.

Consider HLPGFNIVSYVQSESIMF, for which the amyloid nucleation score was -0.08 ± 0.2. The same measure for MKYPENSQWKDLYGFTVQVH: 0.102 ± 0.46; for GHDVWKANSLTRVKLREYYG: 0.546 ± 0.35; for ITGLVRLFC: 0.134 ± 1. YWVCE: the amyloid nucleation score came out at 0.332 ± 0.9. The same measure for ETLSSFI: 0.032 ± 0.28. As for QGWKGSC, the amyloid nucleation score is -0.385 ± 1.4. The same measure for IQFIDRPDHIARRLVWFRIG: 0.351 ± 0.27. The same measure for KRMVCDVCIDVMPSEFKQAG: 1.02 ± 0.76; for DYSYCKVNPLNSVLSVLVLL: -0.34 ± 0.29; for ASNGVN: -0.099 ± 0.5. As for FTSLWDCALTHVVTFPAILG, the amyloid nucleation score was -1.36 ± 1.8. The same measure for LFLCGGDCYGKFLLCPCLVS: 0.144 ± 0.9; for CRYFSSSSGEAGQIFVVICG: -0.201 ± 0.67; for CVGVWVRFLTQQCSTHKQYE: -0.116 ± 1.2. The same measure for GCVSVPYQLPPLISYGLVN: -0.123 ± 0.62; for HLRWQMDWCSHNNGMDVMRG: 3.71 ± 0.12. The same measure for GGLGVDATGYHVSTEGEELE: -0.275 ± 0.43; for LSIFMTITAVESPWVTETVF: -0.803 ± 0.4. As for LWFLNRRLVKQSYG, the amyloid nucleation score was determined as 0.606 ± 0.38. RVLANCLCFKYNETRRGCTL: the amyloid nucleation score was found to be 0.218 ± 0.95.

In turn, FVADGLAPFLPMTVPLVGIK displayed an amyloid nucleation score of -1.06 ± 2.4. WDWGMCTCRWRDSAASWGKR came in with an amyloid nucleation score of 0.432 ± 0.34. LCLFFGLHLWVWMRKACCY: the amyloid nucleation score is -0.205 ± 0.31. Turning to MHCLGLAWALELVSLLC, the amyloid nucleation score is -0.374 ± 0.77.

In the case of SVLIVLMHGMGYQQKTYCRF, the amyloid nucleation score turned out to be 0.316 ± 0.48.

On to VFVVN, for which the amyloid nucleation score was -0.557 ± 0.55. The same measure for DRWRSL: -0.582 ± 0.96; for EVYKHHYLA: 0.044 ± 0.47. The same measure for SSYSRCTFKAFKLGSVRVQV: 0.924 ± 0.7; for GNFGWHSLSYRDNYICSWAL: 4.43 ± 0.068; for AALWHFNFINRSFRTVGPAG: -0.569 ± 0.38. For the substance LELTIRVRNSIVI, the amyloid nucleation score entry is “inactive”.

In the case of LIIILVQQSEGACRILARD, the amyloid nucleation score amounted to 0.028 ± 0.34. KSKRWELLPFEVRAARAVGQ returned an amyloid nucleation score of -0.024 ± 0.3. The same measure for RHVNEQDILREQFLLMDFRK: 0.753 ± 0.72. EYTGSEPYLLVQVSLLNQRV: the amyloid nucleation score result was “inactive”. For YGILSLRICSLENSLSA, the amyloid nucleation score was -1.34 ± 1. Substance WKMNGPFDFDPRRMISHDLK registered an amyloid nucleation score of -0.158 ± 0.42.
